Results as given in the DeepSol protein solubility set.

assay: soluble on expression in E. coli; label from the status in PepcDB or PDB records

Sequence	soluble on expression in E. coli
MCQFIETIRIEDGQVYNLSYHTARMNRTRAAFWKEAAPIDLSGFISPPSLSGIWKCRIVYDKEIEEVGYTPYQMRMVSSLRPVASDTIDYSYKSTNREELNDLFARRGKADDILIVKDGYLTDTSIANIALYDGHTWYTPAHPLLQGTKRAELLDNRFIVEKDIRQAQLGDYSHIMLFNAMIDWKRLIIPVNEKYFIL	not soluble
MCRMFLCHGNFGEDAGRLFLALSETAKNDPLLVKAGSTWTSHSDGWGMAMLSDGSIRFEKHSRPVYEDSVPTIISSGTVLAHARKASPGEPLGNAFSHPFYAEDERYIVLLAHNGSLDKHRIANCDPKCYDRNTDSGLFLSYIMTFPGTVKERFERAIFESLKNGVFGKLTNLLVVALDKFTMIEERLYFSHNASRSEYGDLYLVNGRGWTGVFSSSILMSAHFPAYVSKSKVENDTVMDLP	not soluble
MCTKNETKPLPSFIEERLNFHIQDLIKSNENQKHLVLGKRPSENAVVMQSNDYLSLSHNELIQKAHRDAISERDDNVVMSAIFLQDDQSKPAFEHQLATFVGMESCLLSQSGWAANIGLLQTICAPNLPVYIDFFAHMSLWEGARTAGAQIHPFMHNNMNHLRKQIQRHGAGIIVVDSVYSTIGTIAPLRAIYEMAKEFDCGLVVDESHSLGTHGPEGSGLLQKLGLTQMVDFVTVSLAKTFAYRAGAILGPNKLAQSLPFVAYPAIFSSTVLPQEVVRLEKTLEVIKAADDKRECLFKRAKELAIGLKRIGFNIRSESQIIALECGSERNTERVRDFLEERDVFGAVFCRPATGRNKNIIRFSVNADMTAQQVDHVLSACQEAFDHPDLEFV	not soluble
MDAIFLKLDNIKGESQVEGFEDQIEIMSYSHNVAMQVNNDVSLTERTSGRAHVGEMSLTKFVDLATPVLNEYCCSGRLIRTAVLTLCRNDDGKMRSLIVYTLTNVLISQLSVSGGAGGKPVETMSLNFTKIEWQITAEKSDGAQQESRTSVWDLAMNQIGK	not soluble
MDAQLEWASSLVPKRQLQQQQQQQEQQQQQQQDFHKDQLMTVGMRIRQRVDQGYASRTPSTSDASLQPGVIRDYSSVIVPQFTRSPLPTANSLPPMLINQRTMSTEASSLEKWDVAEPAAEHETMVNGSKRRL	soluble
MDASLTGAVAELGTSKAAARIRAAAIEVFAAKGYGATTTREIAASLDMSPGAVYPHYKTKESLLYAISLEGHHSVLAAITAADFPDIAAPDRLMSTVTAYVTWHADNRASARVGQYELRSLSPEHFAIIADIRRSTTKVFTRIIEAGATAGDFHPFDIEAAALAITSLGIDVSRWFPSHTYSDPRIIAARYVELALRMVGCADRQPLDKPS	soluble
MDAWFEDTAMGRYVAKLEQDFFGRYLDSYRFSGMCAVQVGGPWLSLSEDVVCVPRDMSMSAENMALADVSADMLLFPHTLEGGVPSQILSEAHRILKPCGRLMLTGFNPYSLWGFSRWFDGERLPEKRFCLPLPELKRRLADVGFDIEFGKFMVYLPPVSSLGQIRFWRFMEKAGDRWWPQCAAVYGLVLVKRAAGVTPLPAWDGYLGGKALAAGAARVAD	not soluble
MDDGDTADDIMDATYRALCTHGYADLTMQDIADESDKSKAALHYHYDSKHDLLCAFLEYLYDGFVDRIEDPAGETPHERLLSLIDSVLDKPDDGSEEFGTAILEIRAHAPYEPGFRERLTKFDDYLVDELEVILEDGIADGTFKSDLDADETAQFIVTVLTGAATERVTTGRPVKCTRRMLTEYVETHLLDGQQEVTA	not soluble
MDDLADCREVFAYFDSKGDERISVQQVGDVLRALGQNPTEAEIHKCVGSFDREARLSFEDFVPIFQSVSKNREKHTVEEFVEGLSHFDKEGNGMINVAELRHLLTTLGERLSDEDVDQLLSGHNDSHGNVNISDFVRAVMNS	soluble
MDDSREESQFIVDDVSKTIKEAIETTIGGNAYQHDKVNNWTGQVVENCLTVLTKEQKPYKYIVTAMIMQKNGAGLHTASSCYWNNDTDGSCTVRWENKTMYCIVSVFGLAV	soluble
MDEIAIDPSINQDMSASEIYRFEGTLYTLPFVTKNNDISWNKSRDEYKSECRTFPPLYKSLFDRQKCGKVRFSPPLSLEQNVNAHLKGSSSQHMTTILQGVEDAGYVFPDIDMLVTTEVLNTIAGSIFNQEKSWKLRAYVTQVQGKNMVIVCDDDFEHHQRISSTQSDFPIERTEALNFAHSICVRDGTRELNNSLHGSEVVVSTIKFREKSVKMIVIGEVDLVTGKNNKSLNTIVATGRTARASFGHNVESRVDSLDYLWSRCFWLGQRLCLVGMRSTEEAPVSSAYLYSLYPPTLKERKRTNYRVDVATTCVAQVMIRLREEAAKMPHANWIIEYTGRDKEFDPAFIKINVAPDTHSFLLVQEYWHIEKEAFESAEEQKKAEDQNVVEPEKIVRTFHQMKRLPGVRKSGTIAKQFQKIINSMSS	not soluble
MDEIWFAGIDLGGTTIKLAFINQYGEIQHKWEVPTDKTGDTITVTIAKTIDSKLDELQKPKHIIKYIGMGAPGPVDMAAGVVYETVNLGWKNYALKNHLETETGIPAVIENDANIAALGEMWKGAGDGAKDVILVTLGTGVGGGIIANGEILHGINGAGGEIGHICSIPEGGAPCNCGKTGCIETIASATGIVRIAKGKIANAKKTTRLKATEQLSARDVFEAAGENDEIALEVVDYVAKHLGLVLGNLASSLNPSKIVLGGGVSRAGELLRSKVEKTFRKCAFPRAAQAADISIAALGNDAGVIGGAWIAKNEWLKHQNCLEHHHHHH	soluble
MDELFTESAKAVLAIAQEEAKYFRHQSVGSEHLLLALVLEPNGIAGKTLRQLNTDTEDIREEIEHLSGYGTMQSPMGNNNLYLPYSPRAKQIFAYAGDEAKRLGAQKIGTEHLLLGLLRDEEILASRILVNLGLSLSKMRQLLLKKMG	soluble
MDFESNGAMMEYCKSTGRTYCAFSIQQSSKLLGTVVLELFTDIAPATCANFIKYIKDGYQGTPLHRIVPNGWVQGGDIVDGSGKGDPGFVLPDETYSVKHDAPGVLGMATGGQPHTANTQFYISLSPLPFLDGKRVAFGRVLNKQSLENLLALQTLPTFQNERPVPDVVIASCHVIYNPNS	not soluble
MDFHRALSALFTNQAAVQPLLGSLGFPFNDGTSILTTALAAQSGGKKLDTPLGILPFDSLPTTNLLTPTKKIKLEDELCASPVSSRSSTVSSSHFSSPQRSPSRKMSVPIPEEKKDSAYFERRRKNNDAAKRSRDARRQKEEQIASKAHALERENMQLRGKVSSLEQEAAQLRFLLFSKISPANSEVSCESNDSTETNDSNDSKSDSTIEV	not soluble
MDGAATKFFRPWESHGSYHHSLPSISPPDSPASTSASSSSSSIGANELTTKRRKCERCTCPNCKAIKHGDRGSQHTHLCSVPGCGKTYKKTSHLRAHLRKHTGDRPFVCDWFDCGKRFDRSDQLIRHKRTHTKEYRFACKFCIRQFSRSDHLQQHLTSVHNIVVVD	not soluble
MDGDGSSFEQFIMPPSALDRLASLHIEYPMLFQLSNVSVEKTSHCGVLEFTADEGLVYLPYWMMQNMSLEEGDVMQVKNISLVKGTYIKLQPHTQDFLDISNPKAILETTLRSYSCLTTGDTIMVPYNNKQYYINVVEAKPSSAVSIIETDCEVDFAPPLDYKEPEKPQKLTPSNKRPLQVKEEEEPASKVPKFTPFTGSGKRLDGKAQTQTEPEDTKQQEKPTENGKDDEKLSVTTPRQISGKLVFGSNSKSAAKETAKVDDPKNIVQESSTKSDEAKFKVFTGKKYSLNG	soluble
MDGNDLIRLEMKRLGPMAVEKGDLLLLSGDNNADASMWDPNSNGPKSYQSQVAGLRLAAGGVFHVLTLKSAGEATLSIHFVFPSRTDPGRQVQMWVRRVGRSFQGAGSGYVLMNMRHVVNVQGKTIHTQTGNTVCLDDITDDCYLDREGRFVFVKSPVGSPPSMIAVGYTNSDGTQDLAELILTESACPEMLHVFSTLEFPD	soluble
MDGPKPNLASAASMESLNSVSSEATNPSQVRTLFVSGLPMDAKPRELYLLFRGCRGYEGALLKMTSKNGKPTSPVGFVTFLSQQDAQDARKMLQGVRFDPECAQVLRLELAKSNTKVARPKQSPPPPQHAALSAAAAGVPQFLAPMQHDLLLDPQSAALFNEQQLLALSLPHLHAAQALQAAYMPASALQQYSQNQLFAAAQMHPAAAAAASLQHSQQASQASTSACSTLFVANLSAEVNEDTLRGVFKAFSGFTRLRLHNKNGSCVAFVEYSDLQKATQAMISLQGFQITANDRGGLRIEYARNKMADVNG	soluble
MDIISLRKSPQYLEEAIAYFQRKWADENSRMVYDNCFRTCLESESPLPQWYLLINGEGEIIGCAGLATNDFNSRMDLYPWLVALFIEEQYRGHNYGNLLIKAVEEDTRRLGFGNLYLCTTHTGYYEHFNFVYIGDCYHPWGEHTRVYQKEI	soluble
MDINKLKLTPDSSIKEALKIVGQERVRLGIIVDKKDKFLGVISDSNIRKALISGKTLKDSIKDIYTKNPITIKENTSKEQLLKISAKTDIYDFPVLDEKGQILSIKSISSLLKANPNSIIIMAGGLGSRLKELTKDTPKPMLKVGKKPILESIIQRLKNQNFENFIFCVNYKKQIIEDYFQKGQKFGVKISYIKERKKLGTAGALSLIKQEFKESFIVMNADILTELDFNALLKAHKKSKALMSVCVREFEQQIPYGVITQKQGFIENIEEKPTQKFLVSAGIYVLENEILNLIAKNEYLDMPELIKLVLQKGKVNTYIINDYWIDIGRPDEFLKANEDFKLEHHHHHH	soluble
MDINTDKYKNITRNLEREMINLNPIQRGGILPTESKKIIYEYWDGYSVCDYCSGRLDQIETPPINEFLEDMSKFLGMDITRPTHGARESKYAVMNSICKEGDYVVLDGNAHYTSYVALERAKLNYEKTDIEEYPTFRVIPESYAEKIDMLEDSKKNIGLILLTHVDGNYGNVADVEKVGKIAKSKGYPFLLNCAYSAGRMPIDGKKLNVDFIAASGHKSMAASGPCGLLSINKKYENEVLETSKVNVLKELQMLGCTSRGIPILSLMASFEHLIERVKKWDLELEKTRKVVNELEPLGFKQIGEKPRNHDIIRFETPILDEIAEKDKRRGFFFYEELKKRGIGGIRRGVTKEFKMSVYGLTNTQVDYVINSMKSIINELR	not soluble
MDISMKQSKRNLWWSVCAGLLFCSWGCSSQVSDKPVTLETLLDEMVSVEEQALYPVPSYTCRQESSYDRASVSPDSAGWFANSDGFGIKRVDTVAGRIEKVMFDEVGPGAITRIWITTIDKRGTWRFYFDGSDQPGWIIPAYDLMRINVPGLGKGMLQAHTSYTPEGKGGNTLFLPIPYARGCKVTFEDEPGVNPTPKYYHINFRKYPEGTQVETFSKEVVERAAQKIAEVDNRLLQPVAGRKGEILREEKSILPSDSLVIPLPAGENAVYEVKFNIRIDNPEQYAQLMRELVFSAGFDGKQTVWVPLSDFSGGGMGAPKVDSWYLTSDGKGNISSRWLMPYQKDGVLKVLNLSSRSVAATMEVNVAPLKWNKDRSLYFYASWRQENGIYIHDKPEEADQCVEWNFATLKGRGVYKGDLLSLYNHAPLWYGEGDEKIWVDDDTFPSHFGTGTEDYYNSSWAPVVPFYTPFGGAPRADLESSHGYNAFYRTRHLDGIPFNKSFKFDIEMLGWKRGEADYATTIYWYGDPEAQVFGTSGIEEARRQLLPAVEASADLEHHHHHH	soluble
MDISSTEIWDAIRRNSFLLYYQPKVDAKTNELIGFEGLIRLKTATAILAPADFFEDIALLNATREMQDFVAETAIEQINQLGGRFSISINIPAHYVVSSNYMTFLYDYVKEHLKYPECLEIEIIERGEITELAVADKNLRKIKKLGVTVSMDDFGKGYSSLAYLRSLPIDIVKTDMSFIALLKTDRKQQIIIQAIVNLCHDLGGKVVTEGVEDIEQVKTLREMKVDYFQGYYFSRPLPMKEIKEKYSIV	not soluble
